Consider 22 molecules from patent US20220153862A1 (CSPC MEGALITH BIOPHARMACEUTICAL, published 2022).

Positions count from the first letter of the chain named.

The labels stand for the following.
T1: human Trophoblast cell surface antigen 2 (TROP2) (human, UniProt P09758 27-274, limits assumed)
T1 construct: Analyte in the SPR experiments and immunogen; also called human TROP2
T1 sequence: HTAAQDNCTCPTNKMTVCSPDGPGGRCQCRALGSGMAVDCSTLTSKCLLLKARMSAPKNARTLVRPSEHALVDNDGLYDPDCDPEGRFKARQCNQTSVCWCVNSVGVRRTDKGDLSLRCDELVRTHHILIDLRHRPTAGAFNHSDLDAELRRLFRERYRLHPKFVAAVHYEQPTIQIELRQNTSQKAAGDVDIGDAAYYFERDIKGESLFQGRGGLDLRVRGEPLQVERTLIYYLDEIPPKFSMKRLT

B1: HC1/LC5 (antibody, human IgG1, kappa, V domains shown)
VH: QVQLVQSGAEVKKPGASVKVSCKASGYTFTDYSINWVRQAPGQGLEWMGVISTYYGDASYNQKFKGRVTMTTDTSTSTAYMELRSLRSDDTAVYYCARYGDGYNQFDYWGQGTMVTVSS
VL: DIQMTQSPSSLSASVGDRVTITCRVSESVDSYGNNFMHWYQQKPGKAPKLLIYRASNLESGVPSRFSGSGSGTDFTFTISSLQPEDIATYYCQQSYEDPYTFGGGTKLEIKR
notes: Humanized anti-TROP2 antibody; also called DP002-HC1LC5
B2: HC2/LC5 (antibody, human IgG1, kappa, V domains shown)
VH: B1 VH with T72R, A79V, R84S, D89E, M114L
VL: B1 VL
notes: Humanized anti-TROP2 antibody
B3: HC2/LC4 (antibody, human IgG1, kappa, V domains shown)
VH: B1 VH with T72R, A79V, R84S, D89E, M114L
VL: EIVLTQSPATLSLSPGERATLSCRVSESVDSYGNNFMHWYQQKPGQAPRLLIYRASNLESGIPARFSGSGSGTDFTLTISSLEPEDFAVYYCQQSYEDPYTFGGGTKVEIKR
notes: Humanized anti-TROP2 antibody
B4: HC2/LC1 (antibody, human IgG1, kappa, V domains shown)
VH: B1 VH with T72R, A79V, R84S, D89E, M114L
VL: DIVMTQSPDSLAVSLGERATINCRVSESVDSYGNNFMHWYQQKPGQPPKLLIYRASNLESGVPDRFSGSGSGTDFTLTISSLQAEDVAVYYCQQSYEDPYTFGQGTKLEIKR
notes: Humanized anti-TROP2 antibody
B5: HC4/LC2 (antibody, human IgG1, kappa, V domains shown)
VH: B1 VH with A16S, M70I, T72A, T74E, R84S, D89E, M114L
VL: DVVMTQSPLSLPVTLGQPASISCRVSESVDSYGNNFMHWFQQRPGQSPRRLIYRASNLESGVPDRFSGSGSGTDFTLKISRVEAEDVGVYYCQQSYEDPYTFGGGTKVEIKR
notes: Humanized anti-TROP2 antibody
B6: HC2/LC3 (antibody, human IgG1, kappa, V domains shown)
VH: B1 VH with T72R, A79V, R84S, D89E, M114L
VL: B5 VL with V2I, L15P, Q17E, F40Y, Q41L, R43K, R49Q, R50L
notes: Humanized anti-TROP2 antibody
B7: HC5/LC5 (antibody, human IgG1, kappa, V domains shown)
VH: EVQLVQSGAEVKKPGESLKISCKGSGYTFTDYSINWVRQMPGKGLEWMGVISTYYGDASYNQKFKGQVTISADKSISTAYLQWSSLKASDTAMYYCARYGDGYNQFDYWGQGTLVTVSS
VL: B1 VL
notes: Humanized anti-TROP2 antibody
B8: HC3/LC3 (antibody, human IgG1, kappa, V domains shown)
VH: B1 VH with G44R, M70I, T72R, T76A, R84S, D89E, M114L
VL: B5 VL with V2I, L15P, Q17E, F40Y, Q41L, R43K, R49Q, R50L
notes: Humanized anti-TROP2 antibody
B9: HC4/LC4 (antibody, human IgG1, kappa, V domains shown)
VH: B1 VH with A16S, M70I, T72A, T74E, R84S, D89E, M114L
VL: B3 VL
notes: Humanized anti-TROP2 antibody
B10: HC4/LC3 (antibody, human IgG1, kappa, V domains shown)
VH: B1 VH with A16S, M70I, T72A, T74E, R84S, D89E, M114L
VL: B5 VL with V2I, L15P, Q17E, F40Y, Q41L, R43K, R49Q, R50L
notes: Humanized anti-TROP2 antibody
B11: HC3/LC5 (antibody, human IgG1, kappa, V domains shown)
VH: B1 VH with G44R, M70I, T72R, T76A, R84S, D89E, M114L
VL: B1 VL
notes: Humanized anti-TROP2 antibody
B12: HC4/LC1 (antibody, human IgG1, kappa, V domains shown)
VH: B1 VH with A16S, M70I, T72A, T74E, R84S, D89E, M114L
VL: B4 VL
notes: Humanized anti-TROP2 antibody
B13: HC1/LC3 (antibody, human IgG1, kappa, V domains shown)
VH: B1 VH
VL: B5 VL with V2I, L15P, Q17E, F40Y, Q41L, R43K, R49Q, R50L
notes: Humanized anti-TROP2 antibody
B14: HC3/LC4 (antibody, human IgG1, kappa, V domains shown)
VH: B1 VH with G44R, M70I, T72R, T76A, R84S, D89E, M114L
VL: B3 VL
notes: Humanized anti-TROP2 antibody
B15: HC3/LC2 (antibody, human IgG1, kappa, V domains shown)
VH: B1 VH with G44R, M70I, T72R, T76A, R84S, D89E, M114L
VL: B5 VL
notes: Humanized anti-TROP2 antibody
B16: HC2/LC2 (antibody, human IgG1, kappa, V domains shown)
VH: B1 VH with T72R, A79V, R84S, D89E, M114L
VL: B5 VL
notes: Humanized anti-TROP2 antibody
B17: HC3/LC1 (antibody, human IgG1, kappa, V domains shown)
VH: B1 VH with G44R, M70I, T72R, T76A, R84S, D89E, M114L
VL: B4 VL
notes: Humanized anti-TROP2 antibody
B18: HC1/LC4 (antibody, human IgG1, kappa, V domains shown)
VH: B1 VH
VL: B3 VL
notes: Humanized anti-TROP2 antibody
B19: HC5/LC3 (antibody, human IgG1, kappa, V domains shown)
VH: B7 VH
VL: B5 VL with V2I, L15P, Q17E, F40Y, Q41L, R43K, R49Q, R50L
notes: Humanized anti-TROP2 antibody
B20: HC5/LC4 (antibody, human IgG1, kappa, V domains shown)
VH: B7 VH
VL: B3 VL
notes: Humanized anti-TROP2 antibody
B21: HC5/LC1 (antibody, human IgG1, kappa, V domains shown)
VH: B7 VH
VL: B4 VL
notes: Humanized anti-TROP2 antibody
B22: HC5/LC2 (antibody, human IgG1, kappa, V domains shown)
VH: B7 VH
VL: B5 VL
notes: Humanized anti-TROP2 antibody

One test concerns the target T1, human Trophoblast cell surface antigen …. Kind of test: SPR, TROP2 as analyte. In general terms: Surface plasmon resonance follows binding to a sensor surface in real time, without labels.
As to B1, the Kd was 0.0577 nM, the off-rate constant (koff) came to 0.000104 s⁻¹ and the on-rate constant (kon) was 1.81e+06 M⁻¹ s⁻¹.

The next test shares this target. Description: SPR affinity ranking, human TROP2.
Molecule B2 had a Kd of 0.052 nM, a koff of 7.38e-05 s⁻¹ and an association rate constant (kon) of 1.42e+06 M⁻¹ s⁻¹.
B3 displayed a Kd of 0.0957 nM, a koff of 0.00014 s⁻¹ and a kon of 1.46e+06 M⁻¹ s⁻¹.
As for B4, the Kd was determined as 0.0375 nM, the koff stood at 5.78e-05 s⁻¹ and the kon was determined as 1.54e+06 M⁻¹ s⁻¹.
In the case of B5, the Kd came to 5.34 nM, the off-rate constant (koff) is 0.000984 s⁻¹ and the on-rate (kon) turned out to be 184000 M⁻¹ s⁻¹.
For the molecule B6, the Kd is 0.104 nM, the koff came out at 0.000141 s⁻¹ and the association rate constant (kon) was 1.36e+06 M⁻¹ s⁻¹.
Taken in the same sequence, the figures for B7 were 0.238 nM, 0.000338 s⁻¹ and 1.42e+06 M⁻¹ s⁻¹.
B8: binding was put at a Kd of 0.107 nM, the koff was 0.000159 s⁻¹ and the kon was determined as 1.49e+06 M⁻¹ s⁻¹.
Regarding B9, the affinity, expressed as Kd, was 0.052 nM; the koff came to 8.88e-05 s⁻¹; the kon is 1.71e+06 M⁻¹ s⁻¹.
B10 registered a Kd of 0.0916 nM, a koff of 0.000178 s⁻¹ and a kon of 1.95e+06 M⁻¹ s⁻¹.
Molecule B11 yielded a Kd of 0.114 nM, a koff of 0.000151 s⁻¹ and an on-rate constant (kon) of 1.32e+06 M⁻¹ s⁻¹.
Regarding B12, the Kd was determined as 0.0457 nM, the koff is 7.74e-05 s⁻¹ and the kon was found to be 1.69e+06 M⁻¹ s⁻¹.
With B13, the equilibrium dissociation constant (Kd) stood at 0.121 nM, the off-rate constant (koff) is 0.000196 s⁻¹ and the kon worked out at 1.62e+06 M⁻¹ s⁻¹.
B1: the Kd is 0.107 nM, the koff turned out to be 0.000149 s⁻¹ and the kon worked out at 1.39e+06 M⁻¹ s⁻¹.
In turn, B14 came in with a Kd of 0.14 nM, a koff of 0.000192 s⁻¹ and a kon of 1.37e+06 M⁻¹ s⁻¹.
The molecule B15 had a Kd of 10.4 nM, a koff of 0.00177 s⁻¹ and a kon of 169000 M⁻¹ s⁻¹.
Taken in the same sequence, the figures for B16 were 865 nM, 0.0251 s⁻¹ and 24900 M⁻¹ s⁻¹.
Taken in the same sequence, the figures for B17 were 0.067 nM, 0.00011 s⁻¹ and 1.65e+06 M⁻¹ s⁻¹.
Molecule B18 showed a dissociation constant Kd of 0.0911 nM, a koff of 0.000126 s⁻¹ and a kon of 1.38e+06 M⁻¹ s⁻¹.
In turn, B19 registered a Kd of 0.182 nM, a koff of 0.000266 s⁻¹ and a kon of 1.46e+06 M⁻¹ s⁻¹.
For B20, the Kd came out at 0.22 nM, the koff was 0.000299 s⁻¹ and the kon was 1.36e+06 M⁻¹ s⁻¹.
The like results for B21 were, in that order, 0.147 nM, 0.000235 s⁻¹ and 1.6e+06 M⁻¹ s⁻¹.
Taken in the same sequence, the figures for B22 were 1.54 nM, 0.000402 s⁻¹ and 261000 M⁻¹ s⁻¹.

The term Kd denotes a measure of binding affinity in units of concentration. A high value points to a looser complex. One may read the koff as the rate constant with which the complex falls apart. A low value points to a long-lived complex. A word on the kon: it is the second-order rate constant of association. A higher kon goes with fast association.
